To fix the notation:
B1: SMC5-SMC6 complex localization factor protein 2 (Homo sapiens), Q8IX21 (parent)
chain: MTRRCMPARPGFPSSPAPGSSPPRCHLRPGSTAHAAAGKRTESPGDRKQSIIDFFKPASKQDRHMLDSPQKSNIKYGGSRLSITGTEQFERKLSSPKESKPKRVPPEKSPIIEAFMKGVKEHHEDHGIHESRRPCLSLASKYLAKGTNIYVPSSYHLPKEMKSLKKKHRSPERRKSLFIHENNEKNDRDRGKTNADSKKQTTVAEADIFNNSSRSLSSRSSLSRHHPEESPLGAKFQLSLASYCRERELKRLRKEQMEQRINSENSFSEASSLSLKSSIERKYKPRQEQRKQNDIIPGKNNLSNVENGHLSRKRSSSDSWEPTSAGSKQNKFPEKRKRNSVDSDLKSTRESMIPKARESFLEKRPDGPHQKEKFIKHIALKTPGDVLRLEDISKEPSDETDGSSAGLAPSNSGNSGHHSTRNSDQIQVAGTKETKMQKPHLPLSQEKSAIKKASNLQKNKTASSTTKEKETKLPLLSRVPSAGSSLVPLNAKNCALPVSKKDKERSSSKECSGHSTESTKHKEHKAKTNKADSNVSSGKISGGPLRSEYGTPTKSPPAALEVVPCIPSPAAPSDKAPSEGESSGNSNAGSSALKRKLRGDFDSDEESLGYNLDSDEEEETLKSLEEIMALNFNQTPAATGKPPALSKGLRSQSSDYTGHVHPGTYTNTLERLVKEMEDTQRLDELQKQLQEDIRQGRGIKSPIRIGEEDSTDDEDGLLEEHKEFLKKFSVTIDAIPDHHPGEEIFNFLNSGKIFNQYTLDLRDSGFIGQSAVEKLILKSGKTDQIFLTTQGFLTSAYHYVQCPVPVLKWLFRMMSVHTDCIVSVQILSTLMEITIRNDTFSDSPVWPWIPSLSDVAAVFFNMGIDFRSLFPLENLQPDFNEDYLVSETQTTSRGKESEDSSYKPIFSTLPETNILNVVKFLGLCTSIHPEGYQDREIMLLILMLFKMSLEKQLKQIPLVDFQSLLINLMKNIRDWNTKVPELCLGINELSSHPHNLLWLVQLVPNWTSRGRQLRQCLSLVIISKLLDEKHEDVPNASNLQVSVLHRYLVQMKPSDLLKKMVLKKKAEQPDGIIDDSLHLELEKQAYYLTYILLHLVGEVSCSHSFSSGQRKHFVLLCGALEKHVKCDIREDARLFYRTKVKDLVARIHGKWQEIIQNCRPTQGQLHDFWVPDS
partner: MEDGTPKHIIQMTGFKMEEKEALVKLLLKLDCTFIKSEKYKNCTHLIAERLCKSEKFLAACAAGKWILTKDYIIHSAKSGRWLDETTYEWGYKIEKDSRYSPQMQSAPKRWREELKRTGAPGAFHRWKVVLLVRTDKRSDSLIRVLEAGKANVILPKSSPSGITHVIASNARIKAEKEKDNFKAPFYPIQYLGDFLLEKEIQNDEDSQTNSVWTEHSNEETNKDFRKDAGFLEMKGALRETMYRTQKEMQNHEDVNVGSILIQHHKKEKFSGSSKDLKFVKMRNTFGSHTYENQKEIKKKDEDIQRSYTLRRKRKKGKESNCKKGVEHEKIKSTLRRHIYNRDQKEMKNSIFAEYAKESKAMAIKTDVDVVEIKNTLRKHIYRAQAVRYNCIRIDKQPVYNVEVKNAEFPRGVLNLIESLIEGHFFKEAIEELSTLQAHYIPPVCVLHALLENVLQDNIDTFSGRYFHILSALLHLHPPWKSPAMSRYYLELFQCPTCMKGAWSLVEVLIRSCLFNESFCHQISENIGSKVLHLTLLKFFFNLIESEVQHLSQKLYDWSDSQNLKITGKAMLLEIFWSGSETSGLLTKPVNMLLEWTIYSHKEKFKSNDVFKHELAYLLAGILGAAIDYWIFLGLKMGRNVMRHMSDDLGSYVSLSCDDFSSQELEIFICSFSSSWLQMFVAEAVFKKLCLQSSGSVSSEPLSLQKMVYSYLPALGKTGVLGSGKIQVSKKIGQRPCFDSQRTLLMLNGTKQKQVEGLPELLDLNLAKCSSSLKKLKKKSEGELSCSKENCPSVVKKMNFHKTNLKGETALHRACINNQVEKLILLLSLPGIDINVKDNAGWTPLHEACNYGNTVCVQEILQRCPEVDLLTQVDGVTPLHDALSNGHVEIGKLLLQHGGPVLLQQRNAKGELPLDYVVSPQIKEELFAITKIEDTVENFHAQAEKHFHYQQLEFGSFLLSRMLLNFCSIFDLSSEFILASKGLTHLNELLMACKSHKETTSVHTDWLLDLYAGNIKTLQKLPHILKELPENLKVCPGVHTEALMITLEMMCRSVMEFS
B2: SMC5-SMC6 complex localization factor protein 1 (Homo sapiens), Q9BQI6 (parent)
chain: B1 partner
partner: B1 chain

One experiment covers variants of B1. The following applies: with slf1_human SLF1, Q9BQI6.
As for C820W;I821W, the “effect of a mutation on the interaction” value is “with no effect”.

Turning to P957D;V959D;W1006A, the “effect of a mutation on the interaction” value is given as “disrupting interaction strength”.

With M831R;I835R, the “effect of a mutation on the interaction” value is given as “disrupting interaction strength”.

Regarding L775E;F786E;F792E, the “effect of a mutation on the interaction” value is on record as “disrupting interaction strength”.

Another experiment covers variants of B2. The following applies: with slf2_human SLF2, Q8IX21.
For A1042D;I1045E;M1049E, the “effect of a mutation on the interaction” value was “disrupting interaction strength”.

Turning to G464D;H468E;A472D;L476E, the “effect of a mutation on the interaction” value is given as “disrupting interaction strength”.

For F957E;L964E, the “effect of a mutation on the interaction” value is recorded as “disrupting interaction strength”.

The record behind these values is IntAct's records for PubMed 36373674.
